B1: glmS ribozyme (parent)
chain: AUAAAAGCGCCAGAACUACAGAAAUGUAGUUGACGAGGAGGAGGUUUAUCGAAUUUUCGGCGGAUGCCUCCAAA

± gives the standard error. Variants at the floor of the assay were thinned out.

What all share (settings): with glucosamine-6-phosphate
Variants of B1 are the subject of data set [1]. The data set is described as follows: self-cleavage kobs at 40 uM GlcN6P; higher = faster cleavage; RNA array. Summed up:
(§1)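 Over ~14 h at 37 °C, tiles were imaged as glucosamine-6-phosphate (40 μM to 10 mM) in HEPES/KCl/Mg(OAc)2 buffer flowed across sequenced MiSeq chips. The chips carried barcoded ribozyme variants transcribed in situ by E. coli RNA polymerase and tracked with a hybridised Cy3 probe. After normalisation to baseline and to non-cleaving reference variants, one- or two-exponential decay fits of per-tile medians gave kobs. kcat and KM followed from weighted Michaelis–Menten fits across concentrations.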

In data set [2] the parent is B1. As to the kind of experiment: self-cleavage kobs at 160 uM GlcN6P; higher = faster cleavage; RNA array. Summed up:
as §1

Variants of B1 are the subject of data set [3]. As to the kind of experiment: self-cleavage kobs at 640 uM GlcN6P; higher = faster cleavage; RNA array. An outline of the steps: as §1
Data set [4] covers variants of B1. As to the kind of experiment: self-cleavage kobs at 2500 uM GlcN6P; higher = faster cleavage; RNA array. Summed up:
as §1

Variants of B1 are the subject of data set [5]. The data set is described as follows: self-cleavage kobs at 10000 uM GlcN6P; higher = faster cleavage; RNA array. An outline of the steps:
as §1

24 variants from the supplement of paper PMC7125110 can be followed below.

Regarding A39U U54G C58U, in the data set with glucosamine-6-phosphate [1], the “self-cleavage kobs at 40 uM GlcN6P” value is < 1e-05 s⁻¹.
For the variant C16A G29U, in the data set with glucosamine-6-phosphate [1], the “self-cleavage kobs at 40 uM GlcN6P” value stood at 0.000701 ± 7.4e-05 s⁻¹. The “self-cleavage kobs at 160 uM GlcN6P” value in the data set with glucosamine-6-phosphate [2] turned out to be 0.00212 ± 0.00064 s⁻¹. In addition, the “self-cleavage kobs at 640 uM GlcN6P” value with glucosamine-6-phosphate [3] turned out to be 0.00517 ± 0.00081 s⁻¹. Further, the “self-cleavage kobs at 2500 uM GlcN6P” value with glucosamine-6-phosphate [4] worked out at 0.0144 ± 0.0033 s⁻¹. Moreover, the “self-cleavage kobs at 10000 uM GlcN6P” value in the data set with glucosamine-6-phosphate [5] was 0.0387 ± 0.0071 s⁻¹.
On to G7U A12G, for which the “self-cleavage kobs at 40 uM GlcN6P” value with glucosamine-6-phosphate [1] was < 1e-05 s⁻¹. Moreover, the “self-cleavage kobs at 160 uM GlcN6P” value in the data set with glucosamine-6-phosphate [2] is < 1e-05 s⁻¹. For the same variant, the “self-cleavage kobs at 640 uM GlcN6P” value in the data set with glucosamine-6-phosphate [3] is < 1e-05 s⁻¹. The “self-cleavage kobs at 10000 uM GlcN6P” value in the data set with glucosamine-6-phosphate [5] is < 1e-05 s⁻¹.
As to A12U C50G G51C, in the data set with glucosamine-6-phosphate [1], the “self-cleavage kobs at 40 uM GlcN6P” value is < 1e-05 s⁻¹.
For C10G U30A A42U G51A, the “self-cleavage kobs at 40 uM GlcN6P” value with glucosamine-6-phosphate [1] is < 1e-05 s⁻¹.
As to G43C, the “self-cleavage kobs at 40 uM GlcN6P” value in the data set with glucosamine-6-phosphate [1] was < 1e-05 s⁻¹. In addition, the “self-cleavage kobs at 160 uM GlcN6P” value with glucosamine-6-phosphate [2] was < 1e-05 s⁻¹. Moreover, the “self-cleavage kobs at 640 uM GlcN6P” value with glucosamine-6-phosphate [3] was < 1e-05 s⁻¹. Further, the “self-cleavage kobs at 2500 uM GlcN6P” value with glucosamine-6-phosphate [4] was < 1e-05 s⁻¹.
For A6U A33U A36G G38C U46G C61U, in the data set with glucosamine-6-phosphate [1], the “self-cleavage kobs at 40 uM GlcN6P” value is < 1e-05 s⁻¹.
Consider U30G A36U C50G C67U, for which the “self-cleavage kobs at 40 uM GlcN6P” value with glucosamine-6-phosphate [1] was 0.000201 ± 3.9e-05 s⁻¹. The “self-cleavage kobs at 10000 uM GlcN6P” value in the data set with glucosamine-6-phosphate [5] is 0.00055 ± 0.00011 s⁻¹.
As to A6C C11A, the “self-cleavage kobs at 40 uM GlcN6P” value in the data set with glucosamine-6-phosphate [1] is < 1e-05 s⁻¹. In addition, in the data set with glucosamine-6-phosphate [2], the “self-cleavage kobs at 160 uM GlcN6P” value is < 1e-05 s⁻¹. Further, the “self-cleavage kobs at 2500 uM GlcN6P” value with glucosamine-6-phosphate [4] was < 1e-05 s⁻¹.
Take A14C A36C C61G: in the data set with glucosamine-6-phosphate [1], the “self-cleavage kobs at 40 uM GlcN6P” value was < 1e-05 s⁻¹.
Consider G37A G40C A48U G63A, for which the “self-cleavage kobs at 40 uM GlcN6P” value in the data set with glucosamine-6-phosphate [1] is < 1e-05 s⁻¹.
In the case of G13C U49G, the “self-cleavage kobs at 40 uM GlcN6P” value with glucosamine-6-phosphate [1] was < 1e-05 s⁻¹. In addition, the “self-cleavage kobs at 160 uM GlcN6P” value in the data set with glucosamine-6-phosphate [2] was < 1e-05 s⁻¹. The “self-cleavage kobs at 640 uM GlcN6P” value with glucosamine-6-phosphate [3] was < 1e-05 s⁻¹.
With C34G U65C, the “self-cleavage kobs at 40 uM GlcN6P” value with glucosamine-6-phosphate [1] is < 1e-05 s⁻¹. In addition, the “self-cleavage kobs at 640 uM GlcN6P” value with glucosamine-6-phosphate [3] was < 1e-05 s⁻¹. Moreover, in the data set with glucosamine-6-phosphate [5], the “self-cleavage kobs at 10000 uM GlcN6P” value was < 1e-05 s⁻¹.
In the case of G9A U65C, in the data set with glucosamine-6-phosphate [1], the “self-cleavage kobs at 40 uM GlcN6P” value was < 1e-05 s⁻¹. In the data set with glucosamine-6-phosphate [2], the “self-cleavage kobs at 160 uM GlcN6P” value is < 1e-05 s⁻¹. Moreover, in the data set with glucosamine-6-phosphate [3], the “self-cleavage kobs at 640 uM GlcN6P” value was < 1e-05 s⁻¹. The “self-cleavage kobs at 2500 uM GlcN6P” value with glucosamine-6-phosphate [4] was < 1e-05 s⁻¹. Further, the “self-cleavage kobs at 10000 uM GlcN6P” value with glucosamine-6-phosphate [5] was < 1e-05 s⁻¹.
In the case of C10A U46G, the “self-cleavage kobs at 40 uM GlcN6P” value with glucosamine-6-phosphate [1] was < 1e-05 s⁻¹. The “self-cleavage kobs at 160 uM GlcN6P” value with glucosamine-6-phosphate [2] is < 1e-05 s⁻¹. Moreover, the “self-cleavage kobs at 640 uM GlcN6P” value in the data set with glucosamine-6-phosphate [3] was < 1e-05 s⁻¹. For the same variant, the “self-cleavage kobs at 2500 uM GlcN6P” value with glucosamine-6-phosphate [4] is < 1e-05 s⁻¹.
As to A14G G51C, the “self-cleavage kobs at 40 uM GlcN6P” value in the data set with glucosamine-6-phosphate [1] is < 1e-05 s⁻¹. The “self-cleavage kobs at 640 uM GlcN6P” value with glucosamine-6-phosphate [3] was < 1e-05 s⁻¹. In addition, the “self-cleavage kobs at 10000 uM GlcN6P” value with glucosamine-6-phosphate [5] is < 1e-05 s⁻¹.
Turning to A42C G60U, the “self-cleavage kobs at 40 uM GlcN6P” value with glucosamine-6-phosphate [1] was < 1e-05 s⁻¹. Also, in the data set with glucosamine-6-phosphate [4], the “self-cleavage kobs at 2500 uM GlcN6P” value is < 1e-05 s⁻¹. Further, in the data set with glucosamine-6-phosphate [5], the “self-cleavage kobs at 10000 uM GlcN6P” value is < 1e-05 s⁻¹.
In the case of U49C G63A C67G, in the data set with glucosamine-6-phosphate [1], the “self-cleavage kobs at 40 uM GlcN6P” value was < 1e-05 s⁻¹. Further, the “self-cleavage kobs at 10000 uM GlcN6P” value with glucosamine-6-phosphate [5] is < 1e-05 s⁻¹.
Take G7C U47G U56G G59U G60C: the “self-cleavage kobs at 40 uM GlcN6P” value with glucosamine-6-phosphate [1] is < 1e-05 s⁻¹.
For the variant G7U G60U, the “self-cleavage kobs at 40 uM GlcN6P” value with glucosamine-6-phosphate [1] was < 1e-05 s⁻¹. Besides, the “self-cleavage kobs at 160 uM GlcN6P” value with glucosamine-6-phosphate [2] was < 1e-05 s⁻¹. The “self-cleavage kobs at 640 uM GlcN6P” value in the data set with glucosamine-6-phosphate [3] was < 1e-05 s⁻¹. In addition, the “self-cleavage kobs at 10000 uM GlcN6P” value in the data set with glucosamine-6-phosphate [5] was < 1e-05 s⁻¹.
With C10U A15U G43A A52G, the “self-cleavage kobs at 40 uM GlcN6P” value with glucosamine-6-phosphate [1] is < 1e-05 s⁻¹. For the same variant, in the data set with glucosamine-6-phosphate [5], the “self-cleavage kobs at 10000 uM GlcN6P” value was < 1e-05 s⁻¹.
Turning to G9A G29C, in the data set with glucosamine-6-phosphate [1], the “self-cleavage kobs at 40 uM GlcN6P” value is < 1e-05 s⁻¹. Further, in the data set with glucosamine-6-phosphate [2], the “self-cleavage kobs at 160 uM GlcN6P” value is < 1e-05 s⁻¹. For the same variant, the “self-cleavage kobs at 640 uM GlcN6P” value in the data set with glucosamine-6-phosphate [3] was < 1e-05 s⁻¹. Also, the “self-cleavage kobs at 10000 uM GlcN6P” value with glucosamine-6-phosphate [5] is < 1e-05 s⁻¹.
For the variant C11U G43C, the “self-cleavage kobs at 40 uM GlcN6P” value with glucosamine-6-phosphate [1] is < 1e-05 s⁻¹. In addition, the “self-cleavage kobs at 160 uM GlcN6P” value with glucosamine-6-phosphate [2] is < 1e-05 s⁻¹. In addition, the “self-cleavage kobs at 640 uM GlcN6P” value with glucosamine-6-phosphate [3] is < 1e-05 s⁻¹. For the same variant, the “self-cleavage kobs at 2500 uM GlcN6P” value with glucosamine-6-phosphate [4] was < 1e-05 s⁻¹.
For the variant A12C G40A C58U, the “self-cleavage kobs at 40 uM GlcN6P” value with glucosamine-6-phosphate [1] is < 1e-05 s⁻¹. The “self-cleavage kobs at 160 uM GlcN6P” value with glucosamine-6-phosphate [2] is < 1e-05 s⁻¹.
